From the DeepSol protein solubility set

Assay: soluble on expression in E. coli; label from the status in PepcDB or PDB records

MGFYLTSRIMKNIKSQGNGEQPAISRRHFIQASSALIALPFVSSPATAQARAVTATENRPAEKVVQTCSTFDCGGKCDIRAHVSDGIVTRISTRPDNALDAQMPVMRACVRGRAYRKFVYHPDRLKYPMKRVGKRGEGKFERISWDEATTLIADNLKSITEKYGPASRYVHVGTAVSGGTFSGDKMARRLLNLTGGYLESYHSVSMGNTAAATPYTYGIAASGSSLDTLLDTKLVILWGHNPTETIFGHTNYFLQKMKQNGTRFIVVDPRYSDTVSSLADQWIPLLPTTDNALMDAMMYVIISENLHDRAFIARYAIGFDEDSMPEGVPANESLVAYLTGAKDGVVKSPEWAEKITHVPAQTIRQLARDYANTKPAALIQGWGPQRHNCGERTARGSTLLATITGNVGIKGGWAAGYGGCANRKFAAGPEMPDNPVKAKISVMNWVQAADDASKVTPDMGLKDADKLDSNIRILFSLAGNYLANQNPDLHQAVRVLEDESKIQFIVASDLFMTPSAKYADLLLPETSFMERWNIGETWGTASYLILSEKLIEPEFERRSDYDWLREVAAKLGIENEFSQGRDEKAWIEHIWEQTRLAMPDENLPDFATLQKTRQHLFKSAPFIAFEDNIRDPENHPFPTPSGKIEIFSKRLYDMQHPEIPALSHYVPAHEGPEDALAKDFPLQLITWKGKNRANSTQYANPWLIEVQQQTLWINPQDAQKRGITHGDMVRIHNSRGICEIPAEVTPRIIPGVVAMQAGAWWQPDENGVDKGGCANVLSSARITALAKGNSHQTMLVEVAKA
soluble on expression in E. coli: not soluble

EMLYRSVDNRDIPQAMPKTIQALAHWDYQGLPDSEVVEAFSVELLALYETKALPKIANRMNIEVSGMRSLMMKTGRKLSRLEVLPTSIKELSRLDKRWADAKHWVAFKNLSGAITVNHYLAALDMQVNEMGEIEAQPEKRQIYVDLFFKT
soluble on expression in E. coli: not soluble

GHMKCPVCHQGEMVSGIKDIPYTFRGRKTVLKGIHGLYCVHCEESIMNKEESDAFMAQVKAFRASVNAETVAPEFIVKVRKKLSLTQKEASEIFGGGVNAFSRYEKGNAQPHPSTIKLLRVLDKHPELLNEIR
soluble on expression in E. coli: soluble

MAVESRSRVTSKLVKAHRAMLNSVTQEDLKVDRLPGADYPNPSKKYSSRTEFRDKTDYIMYNPRPRDEPSSENPVSVSPLLCELAAARSRIHFNPTETTIGIVTCGGICPGLNDVIRSITLTGINVYNVKRVIGFRFGYWGLSKKGSQTAIELHRGRVTNIHHYGGTILGSSRGPQDPKEMVDTLERLGVNILFTVGGDGTQRGALVISQEAKRRGVDISVFGVPKTIDNDLSFSHRTFGFQTAVEKAVQAIRAAYAEAVSANYGVGVVKLMGRDSGFIAAQAAVASAQANICLVPENPISEQEVMSLLERRFCHSRSCVIIVAEGFGQDWGRGSGGYDASGNKKLIDIGVILTEKVKAFLKANKSRYPDSTVKYIDPSYMIRACPPSANDALFCATLATLAVHEAMAGATGCIIAMRHNNYILVPIKVATSVRRVLDLRGQLWRQVREITVDLGSDVRLARKLEIRRELEAINRNRDRLHEELAKL
soluble on expression in E. coli: soluble

MTTQVKPIRSFLFVPGNKESMLDKAALAKADALILDLEDSVPPAEKLAARELVARKIPALIAQGQRIWVRINRSAHIYDLDDILAVAQPGVEGVVISKPWGPEDVYMASSMIAEAETRANLPLGSIGLIPLLETARSMQLCYEIAQMPRVVGIVGATAKNADMGRALKFVWTPEGRETEYLKSRVVMAARAAGKQAIGGIWQQIKDLEGLARSSAFDRQLGMSGELALHPMQVETINRTYTPTAEDVAYYQGMIDALDAAQAQGRASVMYDGEHIDIAHVKTAHEVIALARAFDAAAALEHHHHHH
soluble on expression in E. coli: soluble

MPEPRCTAIVNFLNLSHSILISIFSVSVMSNYHHNHNYQHRPRGYERLPGKRLPDRWNIYDNVGRDIDGTRFVPFKTPLDSSFFDGKNMPVELQFGVKTLISLAQQANKQIGLVIDLTNTDRYYKKTEWADHGVKYLKLNCPGHEVNEREDLVQDFINAVKEFVNDKENDGKLIGVHCTHGLNRTGYLICRYMIDVDNYSASDAISMFEYYRGHPMEREHYKKSLYEAERKKKYGKSSGKSSGNSADSTISSEQLHRNNSQ
soluble on expression in E. coli: not soluble

GMTQHLTIAQTYLAAWNEEDNERRRHLVGQAWAENTRYVDPLMQGEGQQGIAAMIEAARQKFPGYRFVLAGTPDGHGNFTRFSWRLISPDGDDVAGGTDVVSLNTEGRIDNVVGFLDGAVS
soluble on expression in E. coli: soluble

MGSDKIHHHHHHMTTINFLGGCREVGRSAVMVDGIMIDYGVKPSDPPEFPLNGLSPRAVILSHGHLDHIGVAPNLMYYDPEVILTPPSHELSMILLRDSMKIMHPPPFTKRELRQFESNIREVEYEEPITVGDYEVEFFNAGHIPGSASIHMRGDVNILYSGDIRLEETRLLEGANTDYPETDILIVESTYFGTEHPDRKELERAFVESVIDTLDMGGHAIIPAFAVGRTQEVLMILERYGITPYVDGMGKEVAQVIQRHPDFIRSPKELKRAVRNAIPVEWRQRERVLEEPSAVVTTAGMLNGGPAMFYISRLYNDEKSKILLTGYQVEGTNGDMALKTGMLNLGTRVVKLKMGVEQYDFSAHADDRQLKEYVKRVVDRGAEVVFTIHGEETEAFAEWIKDNIGVEAYAPKNGEIYVI
soluble on expression in E. coli: not soluble

MSLTVKDILDAIQSPDSTPADIAALPLPESYRAITVHKDETEMFAGLETRDKDPRKSIHLDDVPVPELGPGEALVAVMASSVNYNSVWTSIFEPLSTFGFLERYGRVSDLAKRHDLPYHVIGSDLAGVVLRTGPGVNAWQAGDEVVAHCLSVELESSDGHNDTMLDPEQRIWGFETNFGGLAEIALVKSNQLMPKPDHLSWEEAAAPGLVNSTAYRQLVSRNGAGMKQGDNVLIWGASGGLGSYATQFALAGGANPICVVSSPQKAEICRAMGAEAIIDRNAEGYRFWKDENTQDPKEWKRFGKRIRELTGGEDIDIVFEHPGRETFGASVFVTRKGGTITTCASTSGYMHEYDNRYLWMSLKRIIGSHFANYREAWEANRLIAKGRIHPTLSKVYSLEDTGQAAYDVHRNLHQGKVGVLCLAPEEGLGVRDREKRAQHLDAINRFRNEGHHHHHH
soluble on expression in E. coli: soluble

MQNIHQHNYVISLKTADARRQHIIQEFAKHNIPFQFFDACSIENNLYMDIEKHLPMLLNSKLSNSEKGCLMSHFLLWKKCVLDDIPYMTIFEDDIILSDESNEFISDYSWVNNRFYEQKEILIKFETFLMPVIRKFTKINEYKERAFNQLISRHFGTASYLISKEAAKYLILLYEKLPADELIAVDESIFNVLLNDKNLCVYQLEPAICVQELQFNKENSLLISQIEEDRYKNQKQNKPRKTLKQRIIKVCYNINRIFKKIKKTKLSDEKDINSDIVKFKLEHHHHHH
soluble on expression in E. coli: not soluble

MARDEVRRILPADIKREVLIKDENAETNPDWGFPPEKRPIEMHIQFGVINLDKPPGPTSHEVVAWIKKILNLEKAGHGGTLDPKVSGVLPVALEKATRVVQALLPAGKEYVALMHLHGDVPEDKIIQVMKEFEGEIIQRPPLRSAVKRRLRTRKVYYIEVLEIEGRDVLFRVGVEAGTYIRSLIHHIGLALGVGAHMSELRRTRSGPFKEDETLITLHDLVDYYYFWKEDGIEEYFRKAIQPMEKAVEHLPKVWIKDSAVAAVTHGADLAVPGIAKLHAGIKRGDLVAIMTLKDELVALGKAMMTSQEMLEKTKGIAVDVEKVFMPRDWYPKLWEKRDRSHHHHHH
soluble on expression in E. coli: soluble

MTTQVVNVIGAGLAGSEAAYQIAKRGVQVRLYEMRPVRQTPAHHTDKFAELVCSNSLRANTLTNAVGVIKEEMRLMDSVIIRAADECSVPAGGALAVDRHEFAAKVTEYVKNHPNVTVMNEEITEIPEGPTIIATGPLTSPDLSAQLKELTGEDYFYFYDAAAPIVEKDSIDMNKVYLKSRYDKGEAAYLNCPMTEEEFDRFYEALIAAETVPLKEFEKEIFFEGCMPVEVMASRGRQTLVFGPMKPVGLEDPKTGKTPYAVVQLRQDDAAGTLYNIVGFQTHLKWGPQKEVLQLIPGLENAEIVRYGVMHRNTFINSPNLLRPTYQYKQRDDLFFAGQMTGVEGYVESAASGLLAGINAARLVKGEEPVVLPPVTAMGSMANYITATNAKNFQPMNANFGLFAPLEKKIKKKAERNEAYATRALETIRNFVNILEHHHHHH
soluble on expression in E. coli: soluble

MAIKVGINGFGRIGRSFFRASWGREEIEIVAINDLTDAKHLAHLLKYDSVHGIFKGSVEAKDDSIVVDGKEIKVFAQKDPSQIPWGDLGVDVVIEATGVFRDRENASKHLQGGAKKVIITAPAKNPDITVVLGVNEEKYNPKEHNIISNASCTTNCLAPCVKVLNEAFGVEKGYMVTVHAYTNDQRLLDLPHKDFRRARAAAINIVPTTTGAAKAIGEVIPELKGKLDGTARRVPVPDGSLIDLTVVVNKAPSSVEEVNEKFREAAQKYRESGKVYLKEILQYCEDPIVSTDIVGNPHSAIFDAPLTQVIDNLVHIAAWYDNEWGYSCRLRDLVIYLAERGL
soluble on expression in E. coli: soluble
